Our source for the Kd and dH values is article PMC7458460.

This assay deals with CN391 (CNA_(1–391)/CNB_(1–170)) (UniProt Q08209). Kind of assay: ITC.

pKd: −log10 of the molar value.

Chain of CN391 (CNA_(1–391)/CNB_(1–170)) (Q08209 1-391, chain 1 of 2): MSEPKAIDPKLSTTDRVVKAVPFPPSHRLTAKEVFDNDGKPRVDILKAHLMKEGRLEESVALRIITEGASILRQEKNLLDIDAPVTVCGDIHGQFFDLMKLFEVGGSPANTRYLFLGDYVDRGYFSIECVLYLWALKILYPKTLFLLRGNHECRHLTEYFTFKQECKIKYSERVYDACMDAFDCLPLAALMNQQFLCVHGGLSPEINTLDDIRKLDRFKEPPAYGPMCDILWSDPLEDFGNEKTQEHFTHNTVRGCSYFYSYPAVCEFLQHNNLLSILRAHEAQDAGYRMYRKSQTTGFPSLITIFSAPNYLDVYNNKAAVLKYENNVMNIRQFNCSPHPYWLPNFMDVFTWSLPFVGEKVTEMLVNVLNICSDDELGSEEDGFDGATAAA
Chain of CN391 (CNA_(1–391)/CNB_(1–170)) (P63098 whole entry, chain 2 of 2, further chain): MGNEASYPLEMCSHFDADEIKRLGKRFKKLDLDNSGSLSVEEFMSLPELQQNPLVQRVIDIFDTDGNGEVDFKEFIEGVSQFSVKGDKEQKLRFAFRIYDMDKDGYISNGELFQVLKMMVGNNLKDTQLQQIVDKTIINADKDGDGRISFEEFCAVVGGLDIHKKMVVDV
Chain of RCAN1_(core) WT (residues 128 to 164) (P53805 183-219): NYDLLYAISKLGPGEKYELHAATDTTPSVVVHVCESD

By pKd is commonly meant −log10 of the Kd, conventionally taken in molar units. A lower pKd goes with a high Kd. “RCAN1_(core) WT (residues 128 to 164) (from UniProt P53805-2 128-164) (domain or fragment)”: the pKd is 6.79 and the dH is -18.8 kcal/mol.
